Measured values as given in paper doi:10.1101/2025.07.16.665153.

Biological target: endogenous MpUVR8 of Marchantia polymorpha (Marchantia polymorpha (endogenous in Tak-1 gemmalings))
Experiment: cross-linking

stoichiometry N: 2
Substance: endogenous MpUVR8 of Marchantia polymorpha (natural protein)
